Test results from patent publication US20100047166A1 (published 2010).

Biological target: T1, 58P1D12 protein expressed on the cell surface (3T3-58P1D12, MDCK/58P1D12, OVCAR-5/58P1D12, xenograft cells) (human, UniProt Q9H9P2 22-273)
T1 construct: also called cell surface 58P1D12; 58P1D12-3T3
T1 sequence: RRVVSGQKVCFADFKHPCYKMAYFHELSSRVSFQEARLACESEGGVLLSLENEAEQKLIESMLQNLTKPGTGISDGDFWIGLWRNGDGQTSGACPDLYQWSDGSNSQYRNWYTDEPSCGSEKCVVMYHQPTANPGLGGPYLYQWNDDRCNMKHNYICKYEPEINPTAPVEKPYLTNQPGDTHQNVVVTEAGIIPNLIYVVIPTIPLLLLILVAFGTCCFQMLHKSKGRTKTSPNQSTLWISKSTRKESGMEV
Experiment: FACS saturation binding on 3T3-58P1D12 cells, one site binding fit

B1: 58P1D12 MAb Ha8-4c4.1 (hybridoma ATCC PTA-9404) (antibody, V domains shown)
VH: QVQLQESGPGLVKPSETLSLTCTVSGGSVSSGGYYWSWIRQPPGKGLEWIGYIYYSGGTNYNPSLKSRVTISVDTSKNQFSLKLTSVTAADTAVYYCARESGYCTNVACFPDAFDIWGQGTMVTVSS
VL: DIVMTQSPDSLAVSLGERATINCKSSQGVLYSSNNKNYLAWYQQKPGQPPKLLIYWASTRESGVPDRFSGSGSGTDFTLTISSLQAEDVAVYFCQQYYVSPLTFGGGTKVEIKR
notes: Fully human IgG1 kappa (gamma 1 kappa) from XenoMouse
Q: Which Kd does the source give for B1 here?
A: Its Kd is 3 nM.
